In US20240327519A1 (Genentech, published 2024) one finds Kd data, which are given here for 1 molecule.

Test [1] deals with PD-1 (programmed cell death protein 1), as parameterised in the receptor occupancy model (UniProt Q15116 25-167, limits assumed). Briefly: assay not stated; parameter of the mPBPK tumor receptor occupancy model.
In test [2] the target is T1, LAG3 (lymphocyte activation gene-3), as parameterised in the receptor occupancy model (UniProt P18627 23-450, limits assumed).
T1 construct: also called CD223
T1 sequence (looked up): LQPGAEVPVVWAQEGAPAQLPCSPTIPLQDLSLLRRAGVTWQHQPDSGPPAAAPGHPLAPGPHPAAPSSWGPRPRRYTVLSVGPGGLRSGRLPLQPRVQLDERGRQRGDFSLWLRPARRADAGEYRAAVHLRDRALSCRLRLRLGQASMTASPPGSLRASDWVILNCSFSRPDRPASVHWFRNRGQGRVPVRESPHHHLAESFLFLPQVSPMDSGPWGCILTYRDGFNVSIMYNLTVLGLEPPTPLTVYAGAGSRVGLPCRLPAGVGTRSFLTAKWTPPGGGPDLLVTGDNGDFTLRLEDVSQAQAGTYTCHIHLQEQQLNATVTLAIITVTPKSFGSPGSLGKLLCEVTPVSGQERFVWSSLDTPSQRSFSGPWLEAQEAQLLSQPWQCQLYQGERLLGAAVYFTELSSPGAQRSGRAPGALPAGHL
Description: assay not stated; parameter of the mPBPK tumor receptor occupancy model; input parameter of the PK/receptor occupancy model; assay not stated.

PD-1 (programmed cell death protein 1), as parameterised in the receptor occupancy model, sequence (Q15116 25-167 limits assumed): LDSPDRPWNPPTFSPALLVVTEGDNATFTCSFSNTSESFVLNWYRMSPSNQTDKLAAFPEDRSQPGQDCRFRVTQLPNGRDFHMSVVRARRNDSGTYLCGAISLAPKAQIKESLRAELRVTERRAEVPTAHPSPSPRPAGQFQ

B1: RO7247669 (PD1-LAG3), anti-PD-1/LAG3 bispecific antibody (bispecific antibody, human IgG1, kappa, L234A L235A)
heavy 1: not shown
light 1: EVQLLESGGGLVQPGGSLRLSCAASGFSFSSYTMSWVRQAPGKGLEWVATISGGGRDIYYPDSVKGRFTISRDNSKNTLYLQMNSLRAEDTAVYYCVLLTGRVYFALDSWGQGTLVTVSSASVAAPSVFIFPPSDEQLKSGTASVVCLLNNFYPREAKVQWKVDNALQSGNSQESVTEQDSKDSTYSLSSTLTLSKADYEKHKVYACEVTHQGLSSPVTKSFNRGEC
heavy 2: EVQLLESGGGLVQPGGSLRLSCAASGFIFDDYTMNWVRQAPGKGLEWVAVISWDGGGTYYTDSVKGRFTISRDDFKNTLYLQMNSLRAEDTAVYYCAKGLTDTTLYGSDYWGQGTLVTVSSASTKGPSVFPLAPSSKSTSGGTAALGCLVEDYFPEPVTVSWNSGALTSGVHTFPAVLQSSGLYSLSSVVTVPSSSLGTQTYICNVNHKPSNTKVDEKVEPKSCDKTHTCPPCPAPEAAGGPSVFLFPPKPKDTLMISRTPEVTCVVVDVSHEDPEVKFNWYVDGVEVHNAKTKPREEQYNSTYRVVSVLTVLHQDWLNGKEYKCKVSNKALGAPIEKTISKAKGQPREPQVCTLPPSRDELTKNQVSLSCAVKGFYPSDIAVEWESNGQPENNYKTTPPVLDSDGSFFLVSKLTVDKSRWQQGNVFSCSVMHEALHNHYTQKSLSLSPGK
light 2: not shown
notes: also called PD-1 BsAb; bsAb RO7247669
For the molecule B1, the Kd stood at 0.25 nM in test [1] and 0.78 nM in test [2].
